{"source": "patent US20020058275A1", "about": "“Compositions, kits, and methods for effecting adenine nucleotide modulation of DNA mismatch recognition proteins” (Thomas Jefferson University, priority 1997, published 2002)", "molecules": {"B1": {"name": "hMSH5: human MutS homolog, putative 834-amino-acid protein encoded by clone b29 (SEQ ID NO: 29) (protein)", "chain": "MASLGANPRRTPQGPRPGAASSGFPSPAPVPGPREAEEEEVEEEEELAEIHLCVLWNSGYLGIAYYDTSDSTIHFMPDAPDHESLKLLQRVLDEINPQSVVTSAKQDENMTRFLGKLASQEHREPKRPEIIFLPSVDFGLEISKQRLLSGNYSFIPDAMTATEKILFLSSIIPFDCLLTVRALGGLLKFLGRRRIGVELEDYNVSVPILGFKKFMLTHLVNIDQDTYSVLQIFKSESHPSVYKVASGLKEGLSLFGILNRCHCKWGEKLLRLWFTRPTHDLGELSSRLDVIQFFLLPQNLDMAQMLHRLLGHIKNVPLILKRMKLSHTKVSDWQVLYKTVYSALGLRDACRSLPQSIQLFRDIAQEFSDDLHHIASLIGKVVDFEGSLAENRFTVLPNIDPEIDEKKRRLMGLPSFLTEVARKELENLDSRIPSCSVIYIPLIGFLLSIPRLPSMVEASDFEINGLDFMFLSEEKLHYRSARTKELDALLGDLHCEIRDQETLLMYQLQCQVLARAAVLTRVLDLASRLDVLLALASAARDYGYSRPRYSPQVLGVRIQNGRHPLMELCARTFVPNSTECGGDKGRVKVITGPNSSGKSIYLKQVGLITFMALVGSFVPAEEAEIGAVDAIFTRIHSCESISLGLSTFMIDLNQVAKAVNNATAQSLVLIDEFGKGTNTVDGLALLAAVLRHWLARGPTCPHIFVATNFLSLVQLQLLPQGPLVQYLTMETCEDGNDLVFFYQVCEGVAKASHASHTAAQAGLPDKLVARGKEVSDLIRSGKPIKPVKDLLKKNQMENCQTLVDKFMKLDLEDPNLDLNVFMSQEVLPAATSIL", "modifications": "left off: a dimerising Fc or GST; large carriers; small tags and cut ends"}}, "test_system": "GST-hMSH3", "assay": "GST fusion protein interaction assay", "assay_type": "binding, human", "conditions": "35S-labeled IVTT protein as prey", "description": "An overnight culture of E. coli XL-blue cells which harbored pGEX-hMSH(X) (i.e. ‘X’ being 2, 3, or 6) was grown in LB with […] ampicillin. 50 milliliter of Luria broth containing ampicillin was inoculated with 1 milliliter of the overnight culture, and the culture was incubated until the optical density, as assessed at 600 nanometers, was about 0.5. IPTG was added to a final concentration of 0.1 millimolar, and the culture container placed in a shaker at 30° C. for 2 hours to generate induced cells. […] GST-fusion protein levels were quantified as described herein. […] GST-fusion protein expression levels were quantitated by Coomassie Brilliant Blue staining of protein separated by SDS-PAGE gels, using BSA as a standard.\nIn vitro transcription and translation (IVTT) reactions involving ^35S-Methionine were performed with pET-hMSH(Y) (i.e. where ‘Y’ was 2, 3, or 6) using purified DNA according to the manufacturers recommendations. […] This value was calculated using the specific activity of ^35 S-Methionine, correcting for the number of methionine residues in each IVTT construct and using SDS-PAGE and a Molecular Dynamics Phosphorlmager device equipped with ImageQuant software (Sunnyvale, Calif.). […]", "data": [{"molecule": "B1", "values": [{"measurement": "interaction with GST-hMSH3 fusion protein", "value": "did not interact"}]}]}
